In US10010626B2, “Molecular constructs with targeting and effector moieties” (Immunwork Inc., priority 2015, dated 2018):

Tests used:
[1] = target: T1, CD20 (Homo sapiens, UniProt P11836); test: Apoptosis by anti-CD20 Fab in a 4-arm PEG linker; assay type: cell-based; conditions: PEG arm of about 1,000-1,200 daltons (about 25-30 ethylene glycol units)
T1 sequence (P11836 1-297): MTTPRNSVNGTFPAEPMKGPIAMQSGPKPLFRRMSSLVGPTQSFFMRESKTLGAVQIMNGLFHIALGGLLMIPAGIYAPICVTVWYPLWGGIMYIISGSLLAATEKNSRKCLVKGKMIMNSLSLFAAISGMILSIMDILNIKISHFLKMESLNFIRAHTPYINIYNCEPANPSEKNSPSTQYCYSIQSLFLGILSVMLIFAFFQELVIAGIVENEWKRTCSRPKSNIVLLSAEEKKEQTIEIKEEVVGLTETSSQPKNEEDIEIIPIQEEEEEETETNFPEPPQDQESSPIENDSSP

[2] = target: human TNF-α (Homo sapiens, UniProt P01375); test: ELISA analysis of purified scFv of adalimumab; assay type: binding; conditions: compared with Expi-293F-produced scFv of adalimumab
Chain of human TNF-α (P01375 77-233 limits assumed): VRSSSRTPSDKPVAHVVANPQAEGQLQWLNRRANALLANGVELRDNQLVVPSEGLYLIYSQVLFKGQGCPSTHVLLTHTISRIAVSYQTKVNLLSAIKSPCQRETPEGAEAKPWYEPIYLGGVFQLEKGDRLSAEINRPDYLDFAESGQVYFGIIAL
Description: The expression plasmid was then transformed into Pichia pastoris by electroporation. To screen for high yield clones, ELISA was performed to measure the expression levels of scFv of adalimumab. Out of 480 transformants, five were selected for further protein induction and examination by SDS-PAGE. The clone scFv_1-A2 was selected for subsequent large-scale fermentation.
The high-yield clone scFv_1-A2 was inoculated in 100 mL of buffered glycerol-complex medium (BMGY, containing 1% yeast extract, 2% peptone, 100 mM K3PO4, 1.34 YNB, 0.4 mg/L biotin and 1% glycerol, pH 6.0) and cultured at 30° C., 200 rpm for 24 hours. On the next day, the culture was changed to a fermentation condition maintaining at 30° C., 30% of dissolved oxygen and pH 6.0. After being fermented for 24 hours, nitrogen source (YE, peptone) and methanol (0.5%, v/v) was added to induce protein expression. The culture supernatant was harvested for protein purification.

Substance	causing apoptosis [1]	binding to human TNF-α (ELISA) [2]
anti-CD20 (rituximab) Fab in a 4-arm PEG linker: anti-CD20 (rituximab) Fab in a 4-arm PEG linker, PEG arm of about 1,000-1,200 daltons	effective in causing apoptosis	–
yeast-produced scFv of adalimumab: scFv of adalimumab produced by Pichia pastoris clone scFv_1-A2	–	bound to human TNF-α equally well as Expi-293F-produced scFv of adalimumab
